Our source for the stoichiometry N (REV7 per SHLD2^1-95) values is publication doi:10.1101/2022.06.09.495453.

The test has as its target SHLD2^1-95 (human). The test can be described thus: SEC-MALS.

Chain of REV7 of the SHLD3-SHLD2^1-95-REV7 ternary complex (Shieldin) (Q9UI95 whole entry, one chain of several): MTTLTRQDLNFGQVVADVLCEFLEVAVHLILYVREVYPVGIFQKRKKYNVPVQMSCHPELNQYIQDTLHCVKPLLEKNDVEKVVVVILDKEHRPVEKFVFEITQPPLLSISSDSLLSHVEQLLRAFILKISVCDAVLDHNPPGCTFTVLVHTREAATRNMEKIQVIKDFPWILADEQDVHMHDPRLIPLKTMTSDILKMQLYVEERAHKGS

For “REV7 of the SHLD3-SHLD2^1-95-REV7 ternary complex (Shieldin) (from UniProt Q9UI95 1-211) (natural protein)”, the stoichiometry N (REV7 per SHLD2^1-95) turned out to be 2.
